Laboratory results as given in patent US20200055920A1 (published 2020).
Each block holds one substance with its values, some of them ahead of it.

Experiments:
Assay in all cases: Biacore SPR; receptor-Fc captured by anti-Fc antibody, ligand injected
Activin A = target: T1, Activin A (UniProt P08476 311-426)
T1 construct: also called βAβA
T1 sequence (looked up): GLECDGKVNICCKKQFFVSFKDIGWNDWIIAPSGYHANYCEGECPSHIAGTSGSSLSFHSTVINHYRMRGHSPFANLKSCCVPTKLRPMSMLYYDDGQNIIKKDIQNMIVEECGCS
Procedure: (§1) Ligands were injected and allowed to flow over the captured receptor protein.

GDF8 = target: T2, GDF8 (UniProt O14793 267-375)
T2 construct: also called myostatin; growth and differentiation factor-8
T2 sequence (looked up): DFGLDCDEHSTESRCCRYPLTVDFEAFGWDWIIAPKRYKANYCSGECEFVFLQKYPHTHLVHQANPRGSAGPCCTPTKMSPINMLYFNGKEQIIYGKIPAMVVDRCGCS
Procedure: as §1

Activin B = target: T3, Activin B (UniProt P09529 293-407)
T3 construct: also called βBβB
T3 sequence (looked up): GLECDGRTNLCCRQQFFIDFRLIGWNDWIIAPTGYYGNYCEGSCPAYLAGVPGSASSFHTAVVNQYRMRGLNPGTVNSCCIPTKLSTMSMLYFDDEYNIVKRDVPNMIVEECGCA
Procedure: as §1

GDF11 = target: T4, GDF11 (UniProt O95390 299-407)
T4 construct: also called BMP11
T4 sequence (looked up): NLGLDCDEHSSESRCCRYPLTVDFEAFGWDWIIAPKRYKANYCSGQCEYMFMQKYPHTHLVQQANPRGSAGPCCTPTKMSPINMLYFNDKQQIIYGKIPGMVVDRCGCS
Procedure: as §1

BMP5 = target: T5, BMP5 (UniProt P22003 317-454, limits assumed)
T5 sequence (looked up): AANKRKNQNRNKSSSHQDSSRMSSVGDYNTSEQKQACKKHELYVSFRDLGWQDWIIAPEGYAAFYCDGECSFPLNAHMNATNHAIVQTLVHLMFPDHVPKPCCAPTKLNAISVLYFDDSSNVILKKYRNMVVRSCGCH

BMP10 = target: T6, BMP10 (UniProt O95393 317-424)
T6 sequence (looked up): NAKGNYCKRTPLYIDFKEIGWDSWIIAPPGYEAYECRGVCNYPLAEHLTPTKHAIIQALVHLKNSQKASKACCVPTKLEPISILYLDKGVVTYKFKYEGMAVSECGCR

BMP9 = target: T7, BMP9 (UniProt Q9UK05 320-429)
T7 construct: also called GDF2
T7 sequence (looked up): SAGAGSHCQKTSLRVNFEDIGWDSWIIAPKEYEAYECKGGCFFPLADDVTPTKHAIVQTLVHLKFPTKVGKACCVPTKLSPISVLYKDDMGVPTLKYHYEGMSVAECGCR
Procedure: as §1

GDF5 = target: T8, GDF5 (UniProt P43026 382-501, limits assumed)
T8 construct: also called BMP14
T8 sequence (looked up): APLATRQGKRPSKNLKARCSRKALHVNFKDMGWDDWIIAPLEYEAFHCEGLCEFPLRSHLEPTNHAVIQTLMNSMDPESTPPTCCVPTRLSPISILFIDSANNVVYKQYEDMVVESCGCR
Procedure: as §1

GDF6 = target: T9, GDF6 (UniProt Q6KF10 336-455, limits assumed)
T9 construct: also called BMP13
T9 sequence (looked up): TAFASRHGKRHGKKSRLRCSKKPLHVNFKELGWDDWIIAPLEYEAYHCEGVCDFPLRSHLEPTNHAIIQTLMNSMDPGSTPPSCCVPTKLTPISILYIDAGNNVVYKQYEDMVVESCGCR
Procedure: as §1

BMP6 = target: T10, BMP6 (UniProt P22004 382-513, limits assumed)
T10 sequence (looked up): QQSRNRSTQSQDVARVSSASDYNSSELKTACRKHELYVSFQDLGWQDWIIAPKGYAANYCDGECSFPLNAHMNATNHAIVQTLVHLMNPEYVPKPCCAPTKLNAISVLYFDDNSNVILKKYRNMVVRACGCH

BMP2 = BMP2 (UniProt P12643 283-396)
BMP4 = target: T11, BMP4 (UniProt P12644 293-408)
T11 sequence (looked up): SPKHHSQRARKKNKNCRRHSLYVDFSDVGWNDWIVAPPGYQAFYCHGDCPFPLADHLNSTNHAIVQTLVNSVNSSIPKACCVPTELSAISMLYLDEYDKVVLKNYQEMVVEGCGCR

BMP7 = target: T12, BMP7 (UniProt P18075 293-431)
T12 construct: also called osteogenic protein-1; OP-1
T12 sequence (looked up): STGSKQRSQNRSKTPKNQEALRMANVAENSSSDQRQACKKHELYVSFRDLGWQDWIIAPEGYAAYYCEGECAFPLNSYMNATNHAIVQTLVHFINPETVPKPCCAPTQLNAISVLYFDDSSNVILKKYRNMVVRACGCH

GDF7 = target: T13, GDF7 (UniProt Q7Z4P5 322-450, limits assumed)
T13 construct: also called BMP12
T13 sequence (looked up): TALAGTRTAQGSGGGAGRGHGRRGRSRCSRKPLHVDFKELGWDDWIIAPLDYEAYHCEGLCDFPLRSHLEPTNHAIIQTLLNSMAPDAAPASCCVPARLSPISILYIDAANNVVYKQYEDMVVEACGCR

BMP2, sequence (P12643 283-396 limits assumed): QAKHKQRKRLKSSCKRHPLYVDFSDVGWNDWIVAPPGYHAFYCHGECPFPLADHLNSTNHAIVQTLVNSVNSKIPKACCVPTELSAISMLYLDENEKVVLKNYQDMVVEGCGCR

Kd (Activin A): 0.045 nM
koff (Activin A): 0.00062 s⁻¹
kon (Activin A): 1.4e+07 M⁻¹ s⁻¹
Kd (GDF8): 0.099 nM
koff (GDF8): 0.0014 s⁻¹
kon (GDF8): 1.4e+07 M⁻¹ s⁻¹
Kd (Activin B): 0.025 nM
koff (Activin B): 0.0002 s⁻¹
kon (Activin B): 7.9e+06 M⁻¹ s⁻¹
Kd (GDF11): 0.028 nM
koff (GDF11): 0.00072 s⁻¹
kon (GDF11): 2.6e+07 M⁻¹ s⁻¹
Kd (BMP5): 1.1 nM
koff (BMP5): 0.0045 s⁻¹
kon (BMP5): 4e+06 M⁻¹ s⁻¹
Kd (BMP10): 0.086 nM
koff (BMP10): 0.0025 s⁻¹
kon (BMP10): 2.9e+07 M⁻¹ s⁻¹
Substance: ActRIIA-Fc homodimer (Fc fusion)

Kd (BMP9): 0.016 nM
koff (BMP9): 0.00013 s⁻¹
kon (BMP9): 7.9e+06 M⁻¹ s⁻¹
Kd (BMP10): 0.006 nM
koff (BMP10): 0.00011 s⁻¹
kon (BMP10): 1.7e+07 M⁻¹ s⁻¹
Substance: ALK1-Fc homodimer (Fc fusion)

Kd (GDF5): 22 nM
koff (GDF5): 0.011 s⁻¹
kon (GDF5): 480000 M⁻¹ s⁻¹
Kd (GDF6): 40 nM
koff (GDF6): 0.0013 s⁻¹
kon (GDF6): 34000 M⁻¹ s⁻¹
Kd (BMP6): 35 nM
koff (BMP6): 0.0049 s⁻¹
kon (BMP6): 140000 M⁻¹ s⁻¹
Kd (BMP2): 0.13 nM
koff (BMP2): 8.9e-05 s⁻¹
kon (BMP2): 680000 M⁻¹ s⁻¹
Kd (BMP4): 0.178 nM
koff (BMP4): 5.3e-05 s⁻¹
kon (BMP4): 300000 M⁻¹ s⁻¹
Kd (BMP7): 15 nM
koff (BMP7): 0.018 s⁻¹
kon (BMP7): 1.2e+06 M⁻¹ s⁻¹
Kd (BMP5): 70 nM
koff (BMP5): 0.002 s⁻¹
kon (BMP5): 29000 M⁻¹ s⁻¹
Kd (GDF7): 12 nM
koff (GDF7): 0.0027 s⁻¹
kon (GDF7): 220000 M⁻¹ s⁻¹
Substance: ALK3-Fc homodimer (Fc fusion)
